Test results published in US20240368668A1, “SUBSTRATES AND BIOMARKERS OF ADAMTS7” (The Broad Institute, Inc., priority 2021, published 2024).

Target: T1, mouse ADAMTS7 (Mus musculus, UniProt Q68SA9, E373Q)
T1 construct: Full-length mouse Adamts7 1-1857 (Uniprot Q68SA9, WT or E373Q catalytic mutant); expressed in transfected cells; host or cells: Human Coronary Artery Smooth Muscle Cells (HCA-SMC, Lonza), adenovirus 50 MOI
T1 sequence (Q68SA9 221-1657 E373Q): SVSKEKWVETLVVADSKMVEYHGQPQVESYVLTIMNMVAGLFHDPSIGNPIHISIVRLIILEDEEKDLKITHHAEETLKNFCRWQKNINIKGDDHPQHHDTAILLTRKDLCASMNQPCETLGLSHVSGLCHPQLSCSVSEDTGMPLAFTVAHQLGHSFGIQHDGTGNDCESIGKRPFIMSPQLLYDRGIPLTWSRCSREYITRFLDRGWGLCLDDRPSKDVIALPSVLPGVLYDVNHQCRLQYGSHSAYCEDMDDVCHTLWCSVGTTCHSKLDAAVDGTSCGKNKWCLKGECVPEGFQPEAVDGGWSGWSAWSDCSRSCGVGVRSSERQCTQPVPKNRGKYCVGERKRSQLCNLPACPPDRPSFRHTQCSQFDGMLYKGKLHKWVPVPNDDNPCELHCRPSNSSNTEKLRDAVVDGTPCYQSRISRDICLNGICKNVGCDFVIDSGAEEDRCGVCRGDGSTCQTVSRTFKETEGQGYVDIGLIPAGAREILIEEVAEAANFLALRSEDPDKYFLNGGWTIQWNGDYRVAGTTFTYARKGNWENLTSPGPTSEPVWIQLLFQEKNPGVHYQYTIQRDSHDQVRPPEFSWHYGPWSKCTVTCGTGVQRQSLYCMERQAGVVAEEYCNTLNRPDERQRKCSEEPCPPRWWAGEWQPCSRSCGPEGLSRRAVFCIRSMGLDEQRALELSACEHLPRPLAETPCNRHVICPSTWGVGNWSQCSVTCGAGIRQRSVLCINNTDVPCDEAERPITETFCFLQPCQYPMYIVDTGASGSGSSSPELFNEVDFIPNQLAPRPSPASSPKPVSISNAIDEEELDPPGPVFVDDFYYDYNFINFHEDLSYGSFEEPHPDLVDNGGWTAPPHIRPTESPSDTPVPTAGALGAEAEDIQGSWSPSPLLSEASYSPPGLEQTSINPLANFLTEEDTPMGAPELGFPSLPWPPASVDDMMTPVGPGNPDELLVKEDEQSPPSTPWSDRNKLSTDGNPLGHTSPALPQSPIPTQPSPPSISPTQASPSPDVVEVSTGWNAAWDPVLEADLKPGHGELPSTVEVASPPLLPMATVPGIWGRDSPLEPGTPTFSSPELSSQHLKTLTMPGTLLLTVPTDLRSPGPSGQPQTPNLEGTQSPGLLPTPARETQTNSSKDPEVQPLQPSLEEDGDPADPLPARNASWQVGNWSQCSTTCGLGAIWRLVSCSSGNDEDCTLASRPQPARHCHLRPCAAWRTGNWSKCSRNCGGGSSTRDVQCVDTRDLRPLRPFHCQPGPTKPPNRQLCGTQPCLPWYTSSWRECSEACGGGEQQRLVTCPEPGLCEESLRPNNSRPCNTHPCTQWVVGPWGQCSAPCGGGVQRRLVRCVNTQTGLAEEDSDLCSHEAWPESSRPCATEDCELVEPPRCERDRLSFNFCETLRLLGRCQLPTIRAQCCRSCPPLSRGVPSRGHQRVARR
Assay: TMT10 TAILS N-terminomics, HUVEC experiment (process replicates, trypsin/AspN digest)
Assay type: cell-based, human
Settings: HUVEC TAILS HC; log fold change of N-terminal peptide, Ad-mADAMTS7 EQ over Luc
From the text: ADAMTS7 Expression, Cell Culture and Preparation of the Secreted Proteins—Full-length mouse Adamts7 1-1857 (Uniprot Q68SA9, WT or E373Q catalytic mutant) with a carboxyl terminal 3xFLAG tag was used to generate custom adenoviruses as previously described. Adeno-CMV-Luciferase (Ad-Luc) from Vector Biolabs was used as a negative control. Human Coronary Artery Smooth Muscle Cells (HCA-SMC) were obtained from Lonza and expanded in Lonza SmGM-2 media in 15 cm tissue culture plates. Twenty-four hours before media collection, near confluent plates were transduced with 50 MOI adenovirus and switched to Lonza Basal SM media with volumes of 20 ml per 15 cm plate. Expression of the Flag tagged ADAMTS7 was confirmed from the media using western blot and detected using the anti-Flag M2-HRP antibody (Sigma, A8592). Collected media was processed by adding protease inhibitors (1 mM EDTA and 1 mM PMSF) and clarified by 500 g×5 min spin at 4 C to pellet cell debris. Cell media supernatants were then passed through a 0.22 um filter and kept chilled. Processed media was then concentrated 50-100× using 3 kDa Centricon Plus-70 filter unit, spun at 3,500 g×60 min at 4 C. Approximately 10% of the processed, concentrated media was set aside for total secretome proteolytic analysis. The remaining 90% of the processed, concentrated media was buffer exchanged into 50 mM HEPES pH 8.0, 150 mM NaCl (2×50 ml) using the 3 kDa Centricon Plus-70 filter unit and concentrated to >2 mg/ml to serve as input for the TAILS experiment. Secretome and TAILS input samples were stored at −80° C.
For the first experiment, referred to as SMC1, 120 ml of media from 6×15 cm dishes was pooled from each condition (Luc, WT, EQ) and processed to produce three separate inputs for the TAILS experiment. Luc, WT and EQ inputs from the SMC1 experiment were each divided into triplicate 400 ug samples to generate technical replicate TAILS data. For the second experiment, referred to as SMC2, media was processed separately in triplicate for each condition (Luc1, Luc2, Luc3, WT1, WT2, WT3, EQ1, EQ2, EQ3) using 60 ml of media from 3×15 cm dishes for each process replicate. Inputs from the SMC2 experiment used process replicates of 300 ug each to generate TAILS data. The third experiment used input from cultured Human umbilical vein endothelial cells (HUVEC) from Lifeline Cell Technology grown in VascuLife Media and transduced in Lifeline Basal EC (+bFGF2 10 ng/ml). The HUVEC experiment used the same strategy as the SMC2 experiment, with 40 ml of media from 2×15 cm dishes for each process replicate and used 200 ug each to generate TAILS data. Inputs for process replicate experiments were restricted to the lowest concentration from the 9 parallel samples for SMC2 or HUVEC.
TMT10 isotopic labeling and negative selection of non-labeled peptides-Sample preparation was performed based on the TAILS protocol from the Overall lab with some modifications. From a single experiment, nine parallel protein samples in 50 mM HEPES pH 8.0, 150 mM NaCl were separately denatured with guanidinium chloride (Sigma, G4505) to reach a final concentration of 2.5M guanidinium chloride and 250 mM HEPES and incubated at 65° C. for 15 min. Reduction was achieved through addition of tris(2-carboxylethyl) phosphine (TCEP) at a final concentration of […] and incubated at 65° C. for 45 min. Alkylation reaction was performed with addition of iodoacetamide (IAA, Sigma, A3221) to a final concentration of 10 mM IAA for 15 min at room temperature in the dark. Following denaturation, reduction and alkylation steps, ten percent of each of the nine parallel protein samples was removed and combined to serve as a pooled reference. Isobaric tags were added to free amine groups using the TMT10plex Isobaric Mass Tagging Kit (ThermoFisher, 90113) with TMT channels randomly assigned to the nine samples and TMT 131 assigned to the pooled reference. […]

Substance	logFC.mEQ.over.Luc
FBN1_29 (LEAGNVKETR; listed as Homo sapiens)	−0.34
FN1_36 (MVQPQSPVAVSQSKPGCYDNGKHYQINQQWER; listed as Homo sapiens)	−0.47
HSPG2_2331 (ANLAYPAGSTQPIR; listed as Homo sapiens)	−0.01
FLNA_1285 (LTQTGGPHVKAR; listed as Homo sapiens)	−0.52
FN1_1143 (LTPGVEYVYTIQVLR; listed as Homo sapiens)	−0.24
IGFBP7_101 (AAGGPGVSGVCVCKSR; listed as Homo sapiens)	−0.04
LOX_124 (WFQAGYSTSR; listed as Homo sapiens)	0.03
AEBP1_37 (FLEGFLSELEPEPR; listed as Homo sapiens)	−0.58

Now from value to substance:

logFC.mEQ.over.Luc	Substance
−0.38	EFEMP1_124 (AVAGPEMQTGR; listed as Homo sapiens)
−0.65	LOXL2_37 (FQQPAPEYHQPQAPANVAKIQLR; listed as Homo sapiens)
−0.08	FN1_1656 (SSSPVTGYR; listed as Homo sapiens)
−0.18	LTBP1_393 (LTATNFR; listed as Homo sapiens)
−0.43	FN1_886 (NQESTPVVIQQETTGTPR; listed as Homo sapiens)
−0.50	FN1_40 (QSPVAVSQSKPGCYDNGKHYQINQQWER; listed as Homo sapiens)
